# B1: Anti-sigma-E factor RseA (Escherichia coli (strain K12)), P0AFX7 (parent)
# chain: MQKEQLSALMDGETLDSELLNELAHNPEMQKTWESYHLIRDSMRGDTPEVLHFDISSRVMAAIEEEPVRQPATLIPEAQPAPHQWQKMPFWQKVRPWAAQLTQMGVAACVSLAVIVGVQHYNGQSETSQQPETPVFNTLPMMGKASPVSLGVPSEATANNGQQQQVQEQRRRINAMLQDYELQRRLHSEQLQFEQAQTQQAAVQVPGIQTLGTQSQ
# partner: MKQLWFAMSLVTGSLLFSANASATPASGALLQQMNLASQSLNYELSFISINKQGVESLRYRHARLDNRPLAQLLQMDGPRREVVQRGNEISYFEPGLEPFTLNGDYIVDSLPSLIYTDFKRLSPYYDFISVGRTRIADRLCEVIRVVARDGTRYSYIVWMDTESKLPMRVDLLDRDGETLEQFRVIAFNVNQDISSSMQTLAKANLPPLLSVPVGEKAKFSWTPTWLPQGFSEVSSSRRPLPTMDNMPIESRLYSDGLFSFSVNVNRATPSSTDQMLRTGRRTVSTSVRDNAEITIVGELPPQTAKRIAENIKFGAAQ
# Variants of: B1
# Details: with rseb_ecoli rseB
row,effect of a mutation on the interaction,Variant
1,disrupting interaction strength,R184E;R185E
2,disrupting interaction strength,R171A;R172A
3,disrupting interaction strength,R171E;R172E
4,disrupting interaction strength,R184A;R185A
